Assay results from the nanobody polyreactivity screen of Harvey et al. (2022).

Test: yeast display, Sf9 membrane polyspecificity reagent, FACS + sequencing; frameworks hold sequencing errors
Procedure, shortened: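 Nanobodies from a synthetic yeast display library (Saccharomyces cerevisiae BJ5465), induced 36–48 hours with galactose, were stained 1 hour at 4 °C with 10% biotinylated, detergent-solubilized Sf9 membrane reagent, enriched on streptavidin microbeads, then FACS-sorted. Anti-HA (expression) and streptavidin (reagent binding) fluorescence set low and high (top ~1%) gates. Polyreactivity labels come from the gate of origin. Genes were colony-PCR amplified, MiSeq 2 × 250 sequenced and filtered by CDR length.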

Sequence	polyreactivity (PSR sort gate)
QVQLVESGGGLVQAGGSLRLSCAASGFIFRSYAMGWYRQAPGKERELVAAISSSGGRTYYADSVKGRFTISRDNAKNTVYLQMNSLKPEDTAVYYCATSLYTDNSWDNYWGQGTQVTVSS	high polyreactivity
QVQLVESGGGLVQAGGSLRLSCAASGFIFRTNAMGRYRQAPGKEREFVAAIRWSGGSTYYADSVKGRFTISRDNAKKTVYLQMNSLKPEDTAVYYCAAEIYLSTYFYPHSIYDYWGQGTQVTVSS	high polyreactivity
QVQLVESGGGLVQAGGSLRLSCAASGFIFRTYAMGWYRQAPGKERDLVAAISWRGGSTYYADSVKGRFTISRDNAKNTVYLQMNSLKPEDTAVYYCAKDTTRGVYRSWPKDMDYWGQGTQVTVSS	low polyreactivity
QVQLVESGGGLVQAGGSLRLSCAASGFIFRVYAMGWYRQAPGKERELVAAITRNGGSTYYADSVKGRFTISRDNAKNTVYLQMNSLKPEDTAVYYCATVYSFGQNRDYWGQGTQVTVSS	high polyreactivity
QVQLVESGGGLVQAGGSLRLSCAASGFIFRWYAMGWYRQAPGKERELVAAISRSGDSTYYADSVKGRFTISRDNAKNTVYLQMNSLKPEDTAVYYCAADDRYYTYGYDYWGQGTQVTVSS	low polyreactivity
QVQLVESGGGLVQAGGSLRLSCAASGFIFRYNAMGWYRQAPGKERELVAVITSGGRTYYADSVKGRFTISRDNAKNTVYLQMNSLKPEDTAVYYCNADSRHRRNYDYWGQGTQVTVSS	high polyreactivity
QVQLVESGGGLVQAGGSLRLSCAASGFIFRYYAMGWSRQAPGIEMELVAAINASGGRTYYADSVKGRFTISRDNARNTVYLQMNSLKPEDTAVYYCAAYRSYQTFDYWGQGTQVTVSS	high polyreactivity
QVQLVESGGGLVQAGGSLRLSCAASGFIFRYYAMGWSRQAPGKERELVAAITSGGRTSYADSVKGRFTISRDNAKNTVYLQMNSLKPEDTAVYYCAKDSYRQRYGSMEYWGQGTQVTVSS	high polyreactivity
QVQLVESGGGLVQAGGSLRLSCAASGFIFRYYAMGWYRQAPGKERELVAAIRGNSGNTYYADSVKGRFTISRDNAKNTVYLQMNSLKPEDTAVYYCAKPFNIWGQGTQVTVSS	high polyreactivity
QVQLVESGGGLVQAGGSLRLSCAASGFIFRYYAMGWYRQAPGKERELVAAISKRGGRTYYADSVKGRFTISRDNAKNTVYLQMNSLKPEDTAVYYCAAGVGTVAPDMDYWGQGTQVTVSS	high polyreactivity
QVQLVESGGGLVQAGGSLRLSCAASGFIFRYYAMGWYRQAPGKERELVAAISRIGGSSYYADSVKGRFTISRDNAKNTVYLQMNSPKPEVTAVYYCAVAEGYYPAYLRDYWGQGTQVTVSS	high polyreactivity
QVQLVESGGGLVQAGGSLRLSCAASGFIFRYYAMGWYRQAPGKERELVAAISSRGSTYYADSVKGRFTISRDNAKNTVYLQMNRLKPEYTALYYCAARGGYRLRYIPYVRYDYWGQGTQLTVSS	high polyreactivity
QVQLVESGGGLVQAGGSLRLSCAASGFIFRYYAMGWYRQAPGKERELVAAISWRGGTTYYADSVKGRFTFSRDNAKNTVYLQMNSLKPDDTAVYYCAADWQWDLGPYIYQVEYWGQGTQVTVSS	high polyreactivity
QVQLVESGGGLVQAGGSLRLSCAASGFIFRYYAMGWYRQAPGKERELVAAISWSGGSTYYADSVKGRFTISRDNAKNTVYLQMNSLKPEDTAVYYCNARYKYLFTVSRYDYWGQGTQVTVSS	high polyreactivity
QVQLVESGGGLVQAGGSLRLSCAASGFIFRYYAMGWYRQAPGKERELVADISWSGGSTHYADSVKGRFTISRDNAKNTVYLQMNSQKPEDTAVYYCAADPTLYSSWSTYYRSNYWGQGTQVTVSS	high polyreactivity
QVQLVESGGGLVQAGGSLRLSCAASGFIFRYYAMGWYRQAPGKERELVATISSGGGTHYADSVKGRFTISRDNAKNTVYLQMNSLKPEDTAVYYCNARGYRRLRTRVDYWGQGTQVTVSS	high polyreactivity
QVQLVESGGGLVQAGGSLRLSCAASGFIFRYYTMGWYRQAPGKERELVAAISSGTSTHYADSVKGRYTISRNNAKNTVNLQMNSLKPEDTAVYYCAADLPYWYNRKPIFPYYYWGQGTQVTVSS	high polyreactivity
QVQLVESGGGLVQAGGSLRLSCAASGFIFSFNAMGWYRQAPGKERELVAAISRRGGRTYYADSVKGRFTISRDNAKNTVYLQMNSLKPEDTAVYYCAAQGRDSTPHGYWGQGTQVTVSS	high polyreactivity
QVQLVESGGGLVQAGGSLRLSCAASGFIFSHYAMGWYRQAPGKERELVAAISRNGGSTYYADSVKGRFTISRDNAKNTVYLQMNSLKPEDTAVYYCAVDVSEWYHYDLYYWYYYWGQGTQVTVSS	high polyreactivity
QVQLVESGGGLVQAGGSLRLSCAASGFIFSKNAMGWYRQAPGKERELVARITRRVGSTYYADSVKGRFTISRDNAKITVYLQMNSLKPEDTAVYYWAAVVHIQRSTRDYWGQGTQVTVSS	high polyreactivity
QVQLVESGGGLVQAGGSLRLSCAASGFIFSKYAMGWYRQAPGKERELVAAITFSGGSTYYADSVKGRFTISRDNAKNTVYLQMNSLKPEDTAVYYCNAEGSYPDVSPVLGYDYWGQGTQVTVSS	low polyreactivity
